“Also recorded” adds a separate entry of the source.
Tests used:
6-OHDA rats = assay: 6-OHDA rat model, apomorphine-induced rotational behaviour; assay type: in vivo; settings: injection in left striatum; apomorphine 0.5 mg/kg s.c.; rotations counted over 10 minutes; versus controls
Description: 6-Hydroxydopamine (or 6-OHDA) animal model of dyskinesia and oxidative stress: The 6-OHDA model was chosen for this study as this model is characterized by oxidative stress and degeneration of DA neurons, similar to the condition in human idiopathic PD patients and is a well-known preclinical animal model of PD.
6-OHDA animals, male Sprague-Dawley rats from Charles River (Raleigh, N.C., USA), were prepared by hemi-lateral lesioning of the A9 dopaminergic pathway by injecting 6-OHDA toxin in the substantia nigra par compacta (SNc) region of the rat brain. This unilateral nigrostriatal degeneration cause assymetry in motor behaviours due to imbalanced dopimanergic activity between striata. […] Baseline rotational behavior and locomoter testing were performed before surgical intervention.
The protocol for lesioning is synonymous with our 6-OHDA stereotaxic injection protocol found in Modi et al., (1996). Rats were sent to the McMaster University animal facility and allowed to acclimatize to the colony room for 1 week following arrival. Each rat was handled by the same researcher daily for 7 days before the start of the experiment. Animals were then tested for baseline apomorphine-induced rotations (tested during light hours), and locomotor activity (tested during dark hours) under apomorphine challenge treatment. Animals were then split into groups and injected with CRP40, CRP40 fragments and peptides, and controls. Animals were housed and tested in compliance with the guidelines described in the Guide to the Care and Use of Experimental Animals (Canadian Council on Animal Care, 1984; 1993).
6-OHDA rats were injected in the left striatum with one of the various fragments via stereotaxic surgery. […] Coordinates for striatal injections of treatment are as follows: A/P +0.7 mm, M/L +3.0 mm, and D/V −5.0 mm. A 25 μl Hamilton syringe with a 22 gauge 2 inch blunt needle was used to inject treatments at a rate of 1 μl/min.
Apomorphine injection causes full body rotational behaviour in the direction contralateral to the 6-OHDA lesion. The total number of rotations per fixed time period is used as a measure of improving or worsening symptomology. A holding chamber in which the animal is confined to a circular shaped floor is used to count rotations, as this is an optimal arrangement for these experiments compared to an open field box. 0.5 mg/ml Apomorphine (Sigma: A4393) was dissolved in 0.9% saline with 0.1% ascorbic acid. Animals were injected subcutaneously with apomorphine (0.5 mg/kg body weight). Animals were placed in a clear plastic cylindrical holding tank and allowed 5 minutes for habituation. Following habituation, 10 minutes was allotted and a cell counter was used to record the number of rotations.

[1] = Competitive radioligand binding of [3H]-DA in the presence of cold DA; settings: 1 nM radioligand, 10 μg protein, range of unlabeled DA
Description: (§1) Methods. The ability of cold DA to displace bound tritiated dopamine ([3H]-DA) in CRP40, P2P4, or heat-shock protein 47 (a control heat-shock protein that plays a role in collagen synthesis) was assessed by competitively binding [3H]-DA in the presence of different concentrations of unlabeled DA or apomorphine (in 0.1% ascorbic acid) using the same methodology as in (Gabriele et al., 2009). […] At the end of incubation, the bound and free ligands were separated by vacuum filtration through Whatman GF/B filters. The filters were washed with 3×5 ml of Tris-EDTA buffer and the radioactive counts were determined on a Beckman scintillation counter. The Assay Buffer was prepared by adding the following components to 500 ml of double distilled water: 25 ml 1M Tris-HCl (pH 8; 50 mM), […] (1 mM), 100 mM PMSF in ethanol (0.1 mM), 0.508 g MgCl2·6H2O (5 mM), 0.0077 g DTT (0.1 mM), 0.050 g Bacitracin (100 μg/ml), and 0.0025 g
(§2) Soybean Trypsin (5 μg/ml). The final pH was adjusted to 7.4. The filtration Buffer was prepared by adding the following components to 2 L of double distilled water: 100 ml 1M Tris-HCl (pH 8; 50 mM), and 4 ml 500 mM EDTA (1 mM). The final pH was adjusted to 7.4. Statistical analysis of the data was performed utilizing Graph Pad Prism 6.0 software. […]

[2] = Competitive radioligand binding of [3H]-DA in the presence of cold apomorphine; settings: 1 nM radioligand, 10 μg protein, range of unlabeled apomorphine
Description: as §1, §2

SH-SY5Y cells [3] = assay: OxiSelect Intracellular ROS Assay, H2O2-induced oxidative stress in transfected cells; assay type: cell-based; settings: overexpression in transfected SH-SY5Y cells; 500 μM H2O2; normal cells had increased ROS
Description: The ability of CRP40- and mortalin-transfected SH-SY5Y cells to protect against the harmful effects of mitochondrial ROS in comparison to normal non-transfected SH-SY5Y cells was measured using the OxiSelect™ Intracellular ROS Assay Kit (Green Fluorescence). H2O2 treatment was used to induce oxidative stress in the assay. Increased fluorescence in this assay corresponded to greater ROS levels.

SH-SY5Y cells [4] = assay: ATP-Glo Bioluminometric Cell Viability Assay with MG-132 proteasomal inhibitor; assay type: cell-based; settings: for preservation of ATP levels and cell viability under proteasomal stress: overexpression in SH-SY5Y cells, MG-132; for cell viability in basal condition versus normal non-transfected SH-SY5Y cells: no MG-132, p<0.0001
Excerpt: The ability of CRP40- and mortalin-transfected SH-SY5Y cells to maintain mitochondrial homeostasis, specifically energy production and ATP levels, was examined using the ATP-Glo™ Bioluminometric Cell Viability Assay Kit. MG-132 was used to inhibit proteasomal function and cause increased oxidative stress, which would compromise mitochondrial function, as well as the processes of energy production. The quantitation of ATP levels was thus used as a measure of cell viability.
FIG. 7 summarizes the results of the adenosine triphosphate assays. […] Mortalin was used as a positive control in this assay. […] The data are representative of mean±S.D. of experiments for each condition performed twice, in triplicate.

Row | Molecule | rotational behaviour in the 6-OHDA rat model (6-OHDA rats) | specific binding of [3H]-DA in competition with cold DA (dopamine binding) [1] | specific binding of [3H]-DA in competition with cold apomorphine (apomorphine binding) [2] | ROS levels under oxidative stress versus normal non-transfected SH-SY5Y cells (SH-SY5Y cells [3]) | preservation of ATP levels and cell viability under proteasomal stress (SH-SY5Y cells [4]) | cell viability in basal condition versus normal non-transfected SH-SY5Y cells (SH-SY5Y cells [4])
1 | P2P4: SEQ ID NO:5, 60-amino acid fragment spanning amino acids 95-154 of full-length CRP40 (6.6 kDa) | reduction of rotational behavior; also recorded: alleviate rotational symptoms; also recorded: as effective as full-length CRP40 | does not bind dopamine at all | does not bind; also recorded: do not bind apomorphine | – | – | –
2 | mortalin: ubiquitously expressed molecular chaperone of 649 amino acids encoded by HSPA9B; positive control in the ATP assay [reference compound] | – | – | – | partially preserves mitochondrial homeostasis and ROS levels | helps to maintain intracellular ATP levels and energy production; also recorded: partially preserve ATP levels and cell viability | significantly lower
3 | P1P5: SEQ ID NO:4, P1P5 fragment of human CRP40 (27 kDa) (protein, listed as Homo sapiens) MDSSGPKHLNMKLTRAQFEGIVTDLIRRTIAPCQKAMQEVSKSDIGEVILVGGMTRMPKVQQTVQGLFGRAPSKAVNPDEAVAIGAAIQGGVLAGDVTDVLLLDVTPLSLGIETLGGVFTKLINRNTTIPTKKSQVFSTAADGQTQVEIKVCQGEREMAGDNKLLGQFTLIGIPPAPRGVPQIEVTFDIDANGIVHVSAKDKGTGRERQIVIQSSGGLSKDDIEENMVKNAEKYAEEDRRKKERV | reduction of rotational behavior; also recorded: effective | – | – | – | – | –
4 | P1P3: SEQ ID NO:2, P1P3 fragment of human CRP40 (11.1 kDa) (protein, listed as Homo sapiens) MDSSGPKHLNMKLTRAQFEGIVTDLIRRTIAPCQKAMQDAEVSKSDIGEVILVGGMTRMPKVQQTVQDLFGRAPSKAVNPDEAVAIGAAIQGGVLA | not effective | – | – | – | – | –
5 | CRP40: SEQ ID NO:1, full-length human catecholamine-regulated protein, 40 kDa molecular chaperone, splice variant of mortalin (protein, listed as Homo sapiens) MDSSGPKHLNMKLTRAQFEGIVTDLIRRTIAPCQKAMQDAEVSKSDIGEVILVGGMTRMPKVQQTVQDLFGRAPSKAVNPDEAVAIGAAIQGGVLAGDVTDVLLLDVTPLSLGIETLGGVFTKLINRNTTIPTKKSQVFSTAADGQTQVEIKVCQGEREMAGDNKLLGQFTLIGIPPAPRGVPQIEVTFDIDANGIVHVSAKDKGTGREQQIVIQSSGGLSKDDIENMVKNAEKYAEEDRRKKERVEAVNMAEGIIHDTETKMEEFKDQLPADECNKLKEEISKMRELLARKDSETGENIRQAASSLQQASLKLFEMAYKKMASEREGSGSSGTGEQKEDQKEEKQ | alleviate rotational symptoms; also recorded: could correct movement impairments | binds DA with high capacity and low affinity; also recorded: binds dopamine with high capacity and low affinity | binds apomorphine; also recorded: binds dopamine | partially preserves mitochondrial homeostasis and ROS levels | helps to maintain intracellular ATP levels and energy production; also recorded: partially preserve ATP levels and cell viability | significantly lower
6 | HSP47: heat shock protein 47, a 47 kDa collagen-specific chaperone used as negative control (protein, UniProt P50454 19-418, looked up) Serpin H1: AEVKKPAAAAAPGTAEKLSPKAATLAERSAGLAFSLYQAMAKDQAVENILVSPVVVASSLGLVSLGGKATTASQAKAVLSAEQLRDEEVHAGLGELLRSLSNSTARNVTWKLGSRLYGPSSVSFADDFVRSSKQHYNCEHSKINFRDKRSALQSINEWAAQTTDGKLPEVTKDVERTDGALLVNAMFFKPHWDEKFHHKMVDNRGFMVTRSYTVGVMMMHRTGLYNYYDDEKEKLQIVEMPLAHKLSSLIILMPHHVEPLERLEKLLTKEQLKIWMGKMQKKAVAISLPKGVVEVTHDLQKHLAGLGLTEAIDKNKADLSRMSGKKDLYLASVFHATAFELDTDGNPFDQDIYGREELRSPKLFYADHPFIFLVRDTQSGSLLFIGRLVRPKGDKMRDEL | does not elicit a correction of rotational behaviour | – | – | – | – | –
